From the DeepSol protein solubility set

Assay: soluble on expression in E. coli; label from the status in PepcDB or PDB records

Row | Sequence | soluble on expression in E. coli
1 | MDLDADFLLLHLSDSALPTGAFAHSFGFETYMDAERITNAEEFQDWLKVLLKVQLTSSDALAMRMFYATPTVSELKRLDERLFAGTPAREIREANARMGTRMAEIVAETYSVPLIVEYLELIQHRELSGHPALALALATHSAGIDVDRAIHAHLTATVSSLIQNAVRGIPLGQMAGQRVMFAMREHIGAAVKRSANLDEIDFCSGDPGLDISQMVHETQRARLFMSLEHHHHHH | not soluble
2 | MDLKSTKKTWKIPSFNQMWGKITSHIGVWFGLEEAERPMRASCSLSMIHHPQLTAVRSSKSSENLHRITTMSPQRIQDVDGSPSTRKPSSSIFTLRRSRNKEKKYKNNGGGGSTKSPISKNGTNEMTQSWHSNHVNGASSGSGSGSTPEHHNKNIFSFLSRQSRSRSNNPSETMSTVPLNKNSPSMPPPPSSNTVADFTHLRRRRPRSAHYDPNTITLPAKEEVTPQDVNDLYKRIDKLGEGSYATVYKCESKLDGSIVALKEIKLQFQEGLPFTAIREASLLRNLRHANIVSLHDIFYQHHQLTFVFEYMKMDLSKYLEQNVYGLDSIDIKLLLFQLLRGLDFCHRKKILHRDLKPQNLLLDEDGVLKLADFGLARAKSVPSRTYSHEVVTLWYRPPDVLMGSTDYSTSLDMWGVGCIFAEICTGAALFPGSKDSHYPGTKDQLDMIFSIRGTPDEKKWPEVKTLPGYTPELFPRYRELSFIAVNPMFTKILKTGQELLGMLLQLRPESRVSAASAMLHPYFASFPREVHLLAPSQSIFRLKELKDLRSL | not soluble
3 | MDLTHFQDGRPRMVDVTEKPETFRTATAEAFVELTEEALSALEKGGVGKGDPLVVAQLAGILAAKKTADLIPLCHPLPLTGVEVRVELLKAEKRVRIEATVKTKAETGVEMEAMTACAVAALTVYDMLKAASKGLVISQVRLLHKAGGKSGEWRREQ | soluble
4 | MDLTQLEMFNAVAEAGSITQAAAKVHRVPSNLTTRLRQLETELGVDLFIRENQRLRLSPAGHNFLRYSQQILALVDEARSVVAGDEPQGLFSLGSLESTAAVRIPATLAEFNRRYPKIQFSLSTGPSGTMLDGVLEGKLNAAFIDGPINHTAIDGIPVYREELMIVTPQGYAPVTRASQVNGSNIYAFRANCSYRRHFESWFHADGAAPGTIHEMESYHGMLACVIAGAGIALIPRSMLESMPGHHQVEAWPLAEQWRWLTTWLVWRRGAKTRPLEAFIQLLDVPDSARQGYQ | soluble
5 | MDMEVDEAISGTSSSRLAPIEEVKPTPKQIKRIAAHSHVKGLGIDTETQEAHYEAAGFVGQAPARTAASIVVDMIRLKCMAGRAVLIAGPPATGKTAIALAMSQELGDGVPFVPLVASEVFSNEVKKTEVLMRSFRRAIGLRVKETKDVYEGEVTELSPVEASDNSGMGKTISHLVLSLKTAKGSKQLKLDPSIYDSILKQRVEVGDVIYIEANSGIVKRVGRCDVYASEFDLEADEFVPMPKGDVRKSKDIVQNVSLHDLDIANARPQGRQGDVSNIVSQLMTPKKTEVTDRLRSEINKVVNEYIESGVAELMPGVLFIDEVHMLDVECFTYLYRALESPMAPVVVFATNRGTTTVRGLGDKAPHGIPPEMLDRLMIIPTMKYNEEDIRKILVHRTEAENVQFEEKAFDLLTRLCAQTCGREVIEVEDVDRCTKLFMDRGESLKKAEEEMRQPKNKK | not soluble
6 | MDNFMDYIYRDFHIMQQTYATLVSVNNKIQIQTDKYSDNITSRQYMTILAIFHLPEDETTLNNIAKKLGTTKQNIKQIINILEGKGYVQTMPSKQDKRAINVSVTKEGWQVAESYAEKSFELFGDIFNDFSVEEMKILWMLLKKLYRFDGEEQDGFEEDANPSGELTEEQIEMAEAFARRRREKYGSK | not soluble
7 | MDNGWPNLQTLALFVAIVEEGSLGAGARKVGMAQPNASRAIAELEADMKAELLVRHPRGSHPTAAGLALVEHSRDLLQSVQEFTEWVTEGRTEQPLKLHVGASMTIAEALLPAWVADMRTRFPACRVDVSVMNSSQVIEAVQKGHLQLGFIETPHVPVRLHARVVQEDKLIVVISPNHEWANRTGRISLRELSETPLIVREVGSGTREALQELLADYDMAEPIQVLNSNAAVRVVVEAGAGPAVLGELALRDHLALGRLLSVPFEGSGVTRPLTAVWSGPRRLPILAGELVSIASNHI | not soluble
8 | MDNKLDVFRRELVDVEGIPLFWSIAEHWSQVESFEARPDDILISTYPKSGTTWVSEILDLIYNNGDAEKCKRDAIYKRVPFMELIIPGITNGVEMLNNMPSPRIVKTHLPVQLLPSSFWKNDCKIIYVARNAKDVVVSYYYFYQMAKIHPEPGTWEEFLEKFMAGQVSFGPWYDHVKSWWEKRKEYRILYLFYEDMKENPKCEIQKILKFLEKDIPEEILNKILYHSSFSVMKENPSANYTTMMKEEMDHSVSPFMRKGISGDWKNQFTVAQYEKFEEDYVKKMEDSTLKFRSEI | soluble
9 | MDNLNVFANEDNQVNDVKPPPPPPRVCARCDSDNTKFCYYNNYCEFQPRYFCKNCRRYWTHGGALRNIPIGGSSRAKRARVNQPSVARMVSVETQRGNNQPFSNVQENVHLVGSFGASSSSSVGAVGNLFGSLYDIHGGMVTNLHPTRTVRPNHRLAFHDGSFEQDYYDVGSDNLLVNQQVGGYGYHMNPVDQFKWNQSFNNTMNMNYNNDSTSGSSRGSDMNVNHDNKKIRYRNSVIMHPCHLEKDGP | not soluble
10 | MDNRNHSANVLIHLHMPKTGGTTLKKIIKRNYDSRKSVDVYEEHHKLPGIFKGLSKQNIECVQGHLPFGVHEYFNRPTTYITMLRDPVDRVISEYYFIRNIEWHNLHESVMKMSLEEYQGLPKNRNLQTRYILGGQLTSVTEVNRAKNILKNHFAVVGLTEKFDASLFLMKEMFNWKQVAYQKYNVTKKRRSKEEISPKLLEKIAKNNEADLELYAFAKELLAKRIRALDPLSAYRLKRFERKHQQGFHGKRDRMAGDPLEHHHHHH | soluble
11 | MDNRSASLHSDIDTVLNNYDYDFAEVEIAVLGNGHINNTYKLTTPEVEFVLQQINHDVFPKTAELSSNAQKINLHLQRQKNIGNYPLSIPQQILSKTGETYSKVGTNYWRLMEFISNSYTLEEVESPEQAALVANAFAEFSCTLSDFPVEELAVIIEDFHDISFRMRQLNEAVENDLQDRLSSCQTLVNFCLDQQDFINHVIDISKKLPLHVTHNDTKINNLLFTEGDTPCAVIDLDTCMPGLLMHDFGDMVRTCCSNLAEDDTNIDAMIIKLDIFSALIQSYQNAFGTKMSALEKDSLIVGTKSVPFSLGTRFLTDYLNGDSYFQVSREKHNLDRAFNQIQLFILLCEAEPELIKLAMQALEHHHHHH | not soluble
12 | MDPAEVEFLAEKEMVKIIPNFSLDKIYLIGGDLGPFNPGLPVEVPVWLALNLKQRQKCRIVPPEWMDTDKLEDIREQERKLDTFTPIPNPYYMELTKLLLNHAADNIPKADEIRTLVKDIWDTRMAKLRLSADSFISQQEAHAQLDNLTLMEINTTRSFLLDSLNYMYKLRSNLQPGRSKDY | not soluble
13 | MDPKRWWEKQEDIVISKDQIPRCDNKEVKMFGGMLLACDDVVTEDQLSWAPGFTDLPKKRGKKKDLNKFDAGILPGTSKQNNPMDPQVRLLLEASWEAMVDAGINPRGLRGSQIGDFDECATPGTSGTQKQNPVTEMGCIMSDTVPSMFSNRISYTFDLQGPSHSADKINFSTKKRMTKLRNRNSIV | not soluble
14 | MDPLVSFFDGMAQASWLRPVHDRLKKGTGSWANRAVLDVGCGTGRLLARGVHEAAHLAGVDLSKQMVLATEERLHEHKQCGRLTVVQGDAYDLPFADESFDVCLSTCVMFLLPEPERGMKEMIRVLNGAGVIGMLNPTNKMNHAAAKAYCKKSGITGFEEKTLLQWSNVSTRRHRYTAEQLTHFFKQHGAWVVTHELVLDGLAVVTVASWNKLEHHHHHH | not soluble
15 | MDPQGYFLWYQVEMPEDRVNDLARELRIRDNVRRVMVVASTTPGRYEVNIVLNPNLDQSQLALEKEIIQRALENYGARVEKVEELGLRRLAYPIAK | soluble
16 | MDPQILSPASYGNRAPQKKKKPKKPSAELPSRHSTRSDENSGKIEPGTEHMSSGQRKNLKLLKSDERARVIDARAVLDSAQKHLATLLKNGGKGGDEDIDELIFNREAEIPVEPIRKGKCPFYFDQRILTIVGRVGEVPVQHWFAIYNTSPFPYMFKIKCSDNSLFKIHPVCGVLDALCDAEISVTFVGAHVPPRYTSYLSIHSMLPDPLFLDVPQAFRNRRNFETRQRLYVEYAYHEDPILVTAEEDRDQFHFQYMRKVLKTDEAESFAKKLKAEKVERLDKKIDEIKARKIDEKLIEREIVRAESPKFEPKTRRLRVEKFFNQQKQKKENEWMEKLKVDASRKPMLSHWDLEMKNIKAEKKKIGAVKKKIKAEKKEDKKKPMGWMSTLKMERDERRTKRKEEEEKKKKDAEEKKKKDAEEKKKKDAEDEKKKDAGDEKKKDAEDEKKKDAGDEKKKKDAGEKKKKDAEEKKKVAEEEKKS | soluble
17 | MDQIRQLAQWIKEANTIAVLTGAGMSTESGIPDFRSENGLYAQEDNVEYYLSEYYYKKDPVDFWRRFKRMFSLKMMGGFAPNDGHRFLRWLEEMGKTVTILTQNIDGLHTKAGSTNVIELHGTLQTATCPSCGNKYDLSFINRHEVPRCEKCQTIVKPDVVLFGGLVPRMEEAFAAAAASDLLLAMGTSLEVAPVNQIPFYVAAESPATRKVLINKTATRMDGMFDLVIYGGIGKTVASVRKQIQAE | soluble
18 | MDQKRLTHLRQLEAESIHIIREVAAEFANPVMLYSIGKDSSVMLHLARKAFYPGTLPFPLLHVDTGWKFREMYAFRDRTANAYGCELLVHKNPEGVAMGINPFVHGSAKHTDIMKTEGLKQALNKYGFDAAFGGARRDEEKSRAKERIYSFRDRFHRWDPKNQRPELWRNYNGQINKGESIRVFPLSNWTEQDIWQYIWLENIDIVPLYLAAERPVLERDGMLMMVDDDRIDLQPGEVIKKRMVRFRTLGCWPLTGAVESHAQTLPEIIEEMLVSTTSERQGRMIDRDQAGSMELKKRQGYF | not soluble
19 | MDQNLKEQILELKRQKNAIILAHYYQRPEVQEIADFIGDSYNLSKIAKENDADTIVFCGVKFMAESAKVLSPQKKVLLPQPKAGCPMADMADAEGLAALKAKHPNAKVVSYINSSVEVKALCDTCCTSSNAAKIVKRIDSDEIIFLPDKNLGSYVQEMVPEKNIILWDGFCKVHNMIIPTDIEEMKNKYGDMKILAHPECWKPVRDMADFIGSTGAMIDYAEKDTTSDKYLVVTETGIMYKMQERVPNKTFYPLRSMVCVNMKATHLEDVYNSLVNSTFEINIEENLRQKALTSLENMLILGRLEHHHHHH | not soluble
20 | MDQSSHHHHHHMDQKQIEEIVRSVMASMGQAAPAPSEAKCATTNCAAPVTSESCALDLGSAEAKAWIGVENPHRADVLTELRRSTVARVCTGRAGPRPRTQALLRFLADHSRSKDTVLKEVPEEWVKAQGLLEVRSEISDKNLYLTRPDMGRRLCAEAVEALKAQCVANPDVQVVISDGLSTDAITVNYEEILPPLMAGLKQAGLKVGTPFFVRYGRVKIEDQIGEILGAKVVILLVGERPGLGQSESLSCYAVYSPRMATTVEADRTCISNIHQGGTPPVEAAAVIVDLAKRMLEQKASGINMTR | soluble
21 | MDRDELVRYLDAYLRIQDFPQDPSLNGLQVEGKRTVRKVGAAVDAGEAIFRKALEEEVDFLIVHHGLFWGKPFPIVGHHKRRLETLFQGGINLYAAHLPLDAHEEVGNNFVLARELGLVDLTPWDVGVKGRFPQPTPLLQVADRLGQLTGMQPLVHQGGLDHVETVILVSGSGTGLLPKVDADLFVTGEPKHSVFHETFERGLNVIYAGHYDTETFGVKALAAHLEARFGLPWVFLDHPTGL | soluble
